Where no end group is shown, it is not given here.
B1: Phage-1362 peptide (Peptide-92 library sequence, SEQ ID NO: 1658) (peptide)
peptide: SCAAGAMWPWPVCV
B2: Phage-1275 (peptide)
peptide: YCAGHIGEYMDKCL
modifications: cysteine pairing not given here; also: fused to phage pIII protein, pIII and linker sequence not given here
notes: Peptide-87 library clone on clonal phage (crude supernatant); not shown: fused to the pIII filament protein of the bacteriophage
B3: Phage-1367 peptide (Peptide-92 library sequence, SEQ ID NO: 1663) (peptide)
peptide: MCAAGANYPWPQCL
modifications: cysteine pairing not given here; also: fused to phage pIII protein
B4: Phage-1395 (peptide)
peptide: TCSAGAYYTWPYCF
B5: Phage-1281 (peptide)
peptide: YCAGHMPQYMSKCL
modifications: cysteine pairing not given here; also: fused to phage pIII protein, pIII and linker sequence not given here
notes: as for B2
B6: Phage-1370 peptide (Peptide-92 library sequence, SEQ ID NO: 1666) (peptide)
peptide: TCAAGAHYSWPACF
B7: Phage-1361 peptide (Peptide-92 library sequence, SEQ ID NO: 1657) (peptide)
peptide: MCAAGATYPWPACL
modifications: cysteine pairing not given here; also: fused to phage pIII protein
B8: Phage-1360 peptide (Peptide-92 library sequence, SEQ ID NO: 1656) (peptide)
peptide: TCSAGATYAWPFCL
B9: Phage-1368 peptide (Peptide-92 library sequence, SEQ ID NO: 1664) (peptide)
peptide: TCSAGATWSWPMCL
B10: Phage-1394 (peptide)
peptide: TCAAGATYEWPACL
B11: Phage-1364 peptide (Peptide-92 library sequence, SEQ ID NO: 1660) (peptide)
peptide: SCKPGVANYWPWCL
B12: Phage-1371 peptide (Peptide-92 library sequence, SEQ ID NO: 1667) (peptide)
peptide: TCAAGATYPWPSCL
B13: Phage-1365 peptide (Peptide-92 library sequence, SEQ ID NO: 1661) (peptide)
peptide: MCSAGAMYSWPLCL
B14: Phage-1373 peptide (Peptide-92 library sequence, SEQ ID NO: 1669) (peptide)
peptide: TCKAGATYLWPFCL
B15: Phage-1274 (peptide)
peptide: YCDGHTGVYKWKCI
modifications: cysteine pairing not given here; also: fused to phage pIII protein, pIII and linker sequence not given here
notes: as for B2
B16: Phage-1391 (peptide)
peptide: TCSAGATWTWPQCL
B17: Phage-1279 (peptide)
peptide: YCAGHSVQYMYKCL
modifications: cysteine pairing not given here; also: fused to phage pIII protein, pIII and linker sequence not given here
notes: as for B2
B18: Phage-1283 (peptide)
peptide: YCAGHLPQYVSKCL
modifications: cysteine pairing not given here; also: fused to phage pIII protein, pIII and linker sequence not given here
notes: as for B2
B19: Phage-1372 peptide (Peptide-92 library sequence, SEQ ID NO: 1668) (peptide)
peptide: RCAAGASYPWPPCL
B20: Phage-1277 (peptide)
peptide: YCDGHNPVYLAKCL
modifications: cysteine pairing not given here; also: fused to phage pIII protein, pIII and linker sequence not given here
notes: as for B2
B21: Phage-1392 (peptide)
peptide: LCAAGATYAWPLCL
B22: Phage-1363 peptide (Peptide-92 library sequence, SEQ ID NO: 1659) (peptide)
peptide: TCSAGASYPWPLCL
B23: Phage-1284 (peptide)
peptide: YCEGHLPWYMSKCL
modifications: cysteine pairing not given here; also: fused to phage pIII protein, pIII and linker sequence not given here
notes: as for B2
B24: Phage-1369 peptide (Peptide-92 library sequence, SEQ ID NO: 1665) (peptide)
peptide: LCSAGAMYPWPTCL
B25: Phage-1366 peptide (Peptide-92 library sequence, SEQ ID NO: 1662) (peptide)
peptide: LCAAGATYPWPFCL
B26: Phage-1280 (peptide)
peptide: YCEGHFGMYMSKCL
modifications: cysteine pairing not given here; also: fused to phage pIII protein, pIII and linker sequence not given here
notes: as for B2
B27: Phage-1286 (peptide)
peptide: YCDGHLPRFMVKCL
modifications: cysteine pairing not given here; also: fused to phage pIII protein, pIII and linker sequence not given here
notes: as for B2
B28: Phage-1389 (peptide)
peptide: WCKPGAPYKWPPCF
B29: Phage-1390 (peptide)
peptide: TCAAGAMYTWPLCF
B30: Phage-1278 (peptide)
peptide: YCEGHAQQYMLKCL
modifications: cysteine pairing not given here; also: fused to phage pIII protein, pIII and linker sequence not given here
notes: as for B2
B31: Phage-1393 (peptide)
peptide: MCAEFFNYPWPLCL
modifications: cysteine pairing not given here; also: fused to phage pIII protein
B32: Phage-1285 (peptide)
peptide: YCDGHHLEYIDKCL
modifications: cysteine pairing not given here; also: fused to phage pIII protein, pIII and linker sequence not given here
notes: as for B2
B33: Phage-1282 (peptide)
peptide: YCQGHALQYLQKCL
modifications: cysteine pairing not given here; also: fused to phage pIII protein, pIII and linker sequence not given here
notes: as for B2
B34: Phage-1276 (peptide)
peptide: YCDGHAGIYVLKCL
modifications: cysteine pairing not given here; also: fused to phage pIII protein, pIII and linker sequence not given here
notes: as for B2
B35: Phage-1396 (peptide)
peptide: TCAAVFSYGWPECF

Tests used:
[1] = molecular target: Anti-CD28 Fab (SEQ ID NOs: 696, 697); assay: phage binding ELISA; Fab-coated wells pre-incubated with CD28 antigen as competitor, anti-M13 HRP detection;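 also: crude clonal phage supernatants added without washing after the CD28 pre-incubation, with wells given blocking buffer only (no CD28) as the reference, bound phage read after washing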
Target sequence in this assay (VH, as listed by the source, chain 1 of 2): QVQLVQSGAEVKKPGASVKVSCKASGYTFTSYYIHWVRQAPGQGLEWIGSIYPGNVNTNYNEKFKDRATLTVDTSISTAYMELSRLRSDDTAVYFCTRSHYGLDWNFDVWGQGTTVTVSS
Target sequence in this assay (VL, as listed by the source, chain 2 of 2): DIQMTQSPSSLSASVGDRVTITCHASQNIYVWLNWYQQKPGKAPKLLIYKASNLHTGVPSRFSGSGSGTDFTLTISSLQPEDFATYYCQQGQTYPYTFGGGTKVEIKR
Experimental: (§1) Clonal phage were harvested as crude supematants and screened via standard ELISAs. […] Prior to the addition of clonal phage, wells were incubated with blocking buffer and CD28 antigen or blocking buffer alone. Without washing or aspirating, clonal phage supematants were then added to the wells and incubated for a short time. Wells were then washed followed by detection of bound phage using a horse radish conjugated anti-M13 antibody. Clonal phage of interest were then sent for sequence analysis.

[2] = molecular target: Anti-CD28 Fab (SEQ ID NOs: 696, 697); assay: phage binding ELISA; biotinylated anti-CD28 Fab on neutravidin plate, clonal phage supernatant, anti-M13 HRP detection;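 also: wells pretreated with blocking buffer, either plus or minus CD28 antigen, then given crude phage supernatant briefly without washing in between, then washed before anti-M13 HRP readout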
Target sequence in this assay (VH, as listed by the source, chain 1 of 2): as the sequence (VH, as listed by the source, chain 1 of 2) above
Target sequence in this assay (VL, as listed by the source, chain 2 of 2): as the sequence (VL, as listed by the source, chain 2 of 2) above
Experimental: (§2) Clonal phage were harvested as crude supematants and screened via standard ELISAs. […] Prior to the addition of clonal phage, wells were incubated with blocking buffer and CD28 antigen or blocking buffer alone. Without washing or aspirating, clonal phage supematants were then added to the wells and incubated for a short time. Wells were then washed followed by detection of bound phage using a horse radish conjugated anti-M13 antibody.

[3] = molecular target: T1, Anti-CD28 Fab (SEQ ID NOs: 696, 697); assay: phage ELISA; Fab on plate pre-incubated with CD28 antigen as competitor, anti-M13 HRP detection
T1 construct: Used biotinylated and captured on neutravidin coated plates in the phage ELISA
T1 sequence (VH, as listed by the source, chain 1 of 2): as the sequence (VH, as listed by the source, chain 1 of 2) above
T1 sequence (VL, as listed by the source, chain 2 of 2): as the sequence (VL, as listed by the source, chain 2 of 2) above
Experimental: (§3) After panning, phage infected bacteria were plated out and colonies picked into 96 well blocks. Clonal phage was then amplified and separated from bacterial cells via centrifugation.
as §1

[4] = molecular target: T1, Anti-CD28 Fab (SEQ ID NOs: 696, 697); assay: phage ELISA; biotinylated Fab on neutravidin plate, clonal phage supernatant, anti-M13 HRP detection
Experimental: as §3, §1

[5] = molecular target: T2, Anti-CD28 Fab (SEQ ID NOs: 696, 697) (biotinylated (site not given)); assay: phage binding ELISA; biotinylated anti-CD28 Fab on neutravidin plate, clonal phage detected with anti-M13-HRP;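 also: crude clonal phage supernatants added briefly to wells preincubated in blocking buffer with or without CD28 antigen, then washed before detection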
T2 sequence (VH, as listed by the source, chain 1 of 2): as the sequence (VH, as listed by the source, chain 1 of 2) above
T2 sequence (VL, as listed by the source, chain 2 of 2): as the sequence (VL, as listed by the source, chain 2 of 2) above

[6] = molecular target: T2, Anti-CD28 Fab (SEQ ID NOs: 696, 697); assay: phage binding ELISA on captured anti-CD28 Fab; competitor: CD28 antigen added to the wells before the phage
Experimental: as §2

Binder | Anti-CD28 Fab signal in the presence of CD28 [1] | Anti-CD28 Fab (SEQ ID NOs: 696, 697) signal [2] | Phage binding ELISA, Anti-CD28 Fab signal in the presence of CD28 [3] | Phage binding ELISA, Anti-CD28 Fab (SEQ ID NOs: 696, 697) signal [4] | also measured
B1 | 0.13 | 2.29 |  |  | 
B2 |  |  | 0.58 | 0.75 | 
B3 | 0.08 | 2.28 |  |  | 
B4 |  |  |  |  | Anti-CD28 Fab (SEQ ID NOs: 696, 697) signal [5]: 2.09; Anti-CD28 Fab signal in the presence of CD28 [6]: 0.08
B5 |  |  | 0.05 | 0.72 | 
B6 | 0.07 | 2.25 |  |  | 
B7 | 0.06 | 2.3 |  |  | 
B8 | 0.06 | 2.31 |  |  | 
B9 | 0.09 | 2.26 |  |  | 
B10 |  |  |  |  | Anti-CD28 Fab (SEQ ID NOs: 696, 697) signal [5]: 2.09; Anti-CD28 Fab signal in the presence of CD28 [6]: 0.07
B11 | 0.1 | 2.29 |  |  | 
B12 | 0.06 | 2.25 |  |  | 
B13 | 0.08 | 2.29 |  |  | 
B14 | 0.08 | 2.23 |  |  | 
B15 |  |  | 0.06 | 0.76 | 
B16 |  |  |  |  | Anti-CD28 Fab (SEQ ID NOs: 696, 697) signal [5]: 2.14; Anti-CD28 Fab signal in the presence of CD28 [6]: 0.08
B17 |  |  | 0.06 | 0.74 | 
B18 |  |  | 0.06 | 0.7 | 

Binder | Anti-CD28 Fab signal in the presence of CD28 [1] | Anti-CD28 Fab (SEQ ID NOs: 696, 697) signal [2] | Phage binding ELISA, Anti-CD28 Fab signal in the presence of CD28 [3] | Phage binding ELISA, Anti-CD28 Fab (SEQ ID NOs: 696, 697) signal [4] | also measured
B19 | 0.05 | 2.25 |  |  | 
B20 |  |  | 0.08 | 0.74 | 
B21 |  |  |  |  | Anti-CD28 Fab (SEQ ID NOs: 696, 697) signal [5]: 2.13; Anti-CD28 Fab signal in the presence of CD28 [6]: 0.07
B22 | 0.08 | 2.29 |  |  | 
B23 |  |  | 0.09 | 0.69 | 
B24 | 0.07 | 2.25 |  |  | 
B25 | 0.07 | 2.28 |  |  | 
B26 |  |  | 0.07 | 0.73 | 
B27 |  |  | 0.07 | 0.69 | 
B28 |  |  |  |  | Anti-CD28 Fab (SEQ ID NOs: 696, 697) signal [5]: 2.14; Anti-CD28 Fab signal in the presence of CD28 [6]: 0.07
B29 |  |  |  |  | Anti-CD28 Fab (SEQ ID NOs: 696, 697) signal [5]: 2.14; Anti-CD28 Fab signal in the presence of CD28 [6]: 0.09
B30 |  |  | 0.05 | 0.74 | 
B31 |  |  |  |  | Anti-CD28 Fab (SEQ ID NOs: 696, 697) signal [5]: 2.11; Anti-CD28 Fab signal in the presence of CD28 [6]: 0.07
B32 |  |  | 0.06 | 0.69 | 
B33 |  |  | 0.08 | 0.71 | 
B34 |  |  | 0.08 | 0.75 | 
B35 |  |  |  |  | Anti-CD28 Fab (SEQ ID NOs: 696, 697) signal [5]: 2.09; Anti-CD28 Fab signal in the presence of CD28 [6]: 0.07
